Molecular target: T1, LexA protein expressed from pBTM117c (UniProt P0A7C2 1-202)
T1 construct: range 1-220
T1 sequence (looked up): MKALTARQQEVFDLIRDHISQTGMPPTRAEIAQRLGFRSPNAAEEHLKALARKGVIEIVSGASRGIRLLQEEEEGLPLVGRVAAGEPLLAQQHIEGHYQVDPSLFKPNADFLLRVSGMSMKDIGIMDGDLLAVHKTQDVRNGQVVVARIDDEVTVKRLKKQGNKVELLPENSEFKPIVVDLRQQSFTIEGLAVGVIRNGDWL
Experiment: yeast two-hybrid in L40cc, growth on SD-leu-trp-his and β-galactosidase membrane assay
Description: Detection of Clones Expressing Known Interacting Proteins From False Positives Using the Improved Two-hybrid System Pairs of the yeast two-hybrid plasmids pBTM117cSIM1 & pGAD427-ARNT, pBTM117c & pGAD427 and pBTM117c-HIP1 & pGAD427 were transformed into the yeast strain L40cc, and Trp+Leu+ transformants that contained at least one of each of the two plasmids were selected on SD-leu-trp plates. Two transformants from each transformation were investigated for the presence of protein-protein interactions by testing the ability of the yeast cells to grow on SD-leu-trp, SD-leu-trp-his, SD-leu+CAN and SD-trp+CHX plates and by the β-galactosidase membrane assay (Breeden and Nasmyth, 1985). […] After selection of the yeast strains harboring the different combinations of the two-hybrid plasmids on SD-leu+CAN and SD-trp+CHX the resulting strains were also analyzed by the β-galactosidase assay. After incubating the membrane containing all three strains on SD-trp+CHX medium only progeny of the yeast strain that originally harbored both the plasmids pBTM117c-HIP1 & pGAD427 yet which had lost the pGAD427 plasmid through counterselection turned blue after incubating in X-Gal solution. […]

binding result: no binding
B1: GAL4ad protein expressed from pGAD427 (other, yeast, UniProt P04386 768-881, looked up)
chain: ANFNQSGNIADSSLSFTFTNSSNGPNLITTQTNSQALSQPIASSNVHDNFMNNEITASKIDDGNNSKPLSPGWTDQTAYNAFGITTGMFNTTTMDDVYNYLFDDEDTPPNPKKE
notes: range 768-881

Reference: patent US6664048 (MAX PLANCK GESELLSCHAFT ZUR FURDERUNG DER WISSENSCHAFTEN E V, dated 2003)
